Test results reported in publication PMC9549148, “Validation of the binding stoichiometry between HCN channels and their neuronal regulator TRIP8b by single molecule measurements” (Frontiers in Physiology, 2022).
Values belong to the molecule of their own block, whether it stands above or below them.

Columns and labels:
[1] = target: rabbit HCN4 carrying an internal deletion (from residues 783 to 1064) (rabbit) (UniProt Q9TV66); test: mass photometry; Refeyn OneMP; SEC peak fractions of the co-purified HCN4 - EGFP-TRIP8b complex in LMNG-CHS, 1 μL at 200 nM added to 10 μL buffer at room temperature, 60 s recording; no cAMP
[2] = target: the molecule itself; test: mass photometry; Refeyn OneMP; the same co-purified HCN4 - EGFP-TRIP8b complex with 2 mM cAMP added prior to mass photometry

- stoichiometry N (TRIP8b per tetrameric HCN4) [1]: 4
Molecule: EGFP-tagged TRIP8b (1a), full-length mouse TRIP8b (splice variant 1a4) (from UniProt Q8C437 1-567) (natural protein)

B1: rabbit HCN4 carrying an internal deletion (from residues 783 to 1064) (natural protein, UniProt Q9TV66 1-1175, looked up)
chain: MDKLPPSMRKRLYSLPQQVGAKAWIMDEEEDAEEEGAGGRQDPRRRSIRLRPLPSPSPSPSAAAAAAGGAESRGAALGGAADGEGPARGAAKSSTNGDCRRFRGSLASLGSRGGGGGGGSTGGGSHGHLHDSAEERRLIAEGDASPGEDRTPPGLAAEPERPGAPAPPAASPPQVPSSCGEQRPADAAVKVEGGAAAGDQILPEAEARLGQAGFMQRQFGAMLQPGVNKFSLRMFGSQKAVEREQERVKSAGFWIIHPYSDFRFYWDLTMLLLMVGNLIIIPVGITFFKDENTTPWIVFNVVSDTFFLIDLVLNFRTGIVVEDNTDIILDPRRIKMKYLKSWFVVDFVSSIPVDYIFLIVETRIDSEVYKTARALRIVRFTKILSLLRLLRLSRLIRYIHQWEEIFHMTYDLASAVVRIVNLIGMMLLLCHWDGCLQFLVPMLQDFPDDCWVSLNNMVNNSWGKQYSYALFKAMSHMLCIGYGRQAPMGMSDVWLTMLSMIVGATCYAMFIGHATALIQSLDSSRRQYQEKYKQVEQYMSFHKLPPDTRQRIHDYYEHRYQGKMFDEESILGELSEPLREEIINFNCRKLVASMPLFANADPNFVTSMLTKLRFEVFQPGDYIIREGTIGKKMYFIQHGVVSVLTKGNKETKLADGSYFGEICLLTRGRRTASVRADTYCRLYSLSVDNFNEVLEEYPMMRRAFETVALDRLDRIGKKNSILLHKVQHDLSSGVSNYQENAIVQRIVQHDREMAHCARRAQATTPVAPAIWTPLIQAPLQAAQDLKLISASQPALPQDGAQTLRRASPHSSSGESVAALPPFPRAPGRPPGAGPGQHVTLTLPRKASSGSLPPPLSLFGPRAAPAGGPRLTAAPQREPGAKSEPVRSKLPSNL
notes: the extreme C-terminal SNL tripeptide is preserved; expected MW of the monomer 98.4 kDa; Cloned into the pCI vector; no tag is stated for HCN4; also called HCN4ΔC; modified HCN4 channels; source: HEK293-F, transiently co-transfected with TRIP8b; solubilised in detergent (LMNG-CHS), purified in complex with TRIP8b (Ni2+-NTA, Superose 6 SEC)
- stoichiometry N [2]: 4
